{"source": "paper PMC9482650", "about": "“Quantitative fragmentomics allow affinity mapping of interactomes” (Nature Communications, 2022)", "assay_in_all_cases": "holdup assay", "parameters_in_all_cases": "key: below the threshold = too weak to quantify, mostly under pKd 3.1 to 4", "key": {"[1]": {"target": "T1, APBA3_1, O96018", "T1 sequence (O96018 389-490, limits assumed, looked up)": "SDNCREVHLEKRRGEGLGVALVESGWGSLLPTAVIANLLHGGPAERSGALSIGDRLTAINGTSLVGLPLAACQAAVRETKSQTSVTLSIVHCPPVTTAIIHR"}, "[2]": {"target": "CASK, O14936", "sequence (O14936 487-570)": "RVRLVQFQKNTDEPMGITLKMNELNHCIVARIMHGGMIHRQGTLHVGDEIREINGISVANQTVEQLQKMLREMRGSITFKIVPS"}, "[3]": {"target": "DLG1_3, Q12959", "sequence (Q12959 457-571)": "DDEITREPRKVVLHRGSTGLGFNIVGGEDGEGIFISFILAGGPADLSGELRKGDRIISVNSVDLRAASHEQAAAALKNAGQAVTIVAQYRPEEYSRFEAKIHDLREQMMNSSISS"}, "[4]": {"target": "T2, DLG3_1, Q92796", "T2 sequence (Q92796 125-227, limits assumed, looked up)": "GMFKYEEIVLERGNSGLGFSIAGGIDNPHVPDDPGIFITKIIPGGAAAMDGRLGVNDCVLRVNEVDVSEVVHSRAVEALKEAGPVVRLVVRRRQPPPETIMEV"}, "[5]": {"target": "T3, DLG3_2, Q92796", "T3 sequence (Q92796 221-321, limits assumed, looked up)": "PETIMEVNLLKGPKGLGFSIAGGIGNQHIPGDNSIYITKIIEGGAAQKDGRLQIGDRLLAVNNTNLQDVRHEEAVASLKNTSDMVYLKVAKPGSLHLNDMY"}, "[6]": {"target": "DLG4_1, P78352", "sequence (P78352 62-152)": "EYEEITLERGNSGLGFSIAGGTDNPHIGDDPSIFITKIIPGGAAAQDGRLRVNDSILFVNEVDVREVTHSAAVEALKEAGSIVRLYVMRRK"}, "[7]": {"target": "FRMPD2_3, Q68DX3", "sequence (Q68DX3 1073-1166)": "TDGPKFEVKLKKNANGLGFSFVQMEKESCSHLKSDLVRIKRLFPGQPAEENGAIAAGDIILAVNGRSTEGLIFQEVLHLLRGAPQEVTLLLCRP"}, "[8]": {"target": "GORASP2, Q9H8Y8"}, "[9]": {"target": "Inadl_5, Q8NI35", "sequence (Q8NI35 673-780)": "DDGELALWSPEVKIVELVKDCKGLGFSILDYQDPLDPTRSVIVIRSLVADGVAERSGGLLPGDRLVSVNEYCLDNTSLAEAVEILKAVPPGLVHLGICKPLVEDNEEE"}, "[10]": {"target": "LNX1_1, Q8TBB1", "sequence (Q8TBB1 261-371)": "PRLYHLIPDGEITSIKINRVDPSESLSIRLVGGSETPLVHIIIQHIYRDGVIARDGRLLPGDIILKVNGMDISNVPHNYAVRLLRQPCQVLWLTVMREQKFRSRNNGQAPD"}, "[11]": {"target": "T4, LNX2_3, Q8N448", "T4 sequence (Q8N448 463-564, limits assumed, looked up)": "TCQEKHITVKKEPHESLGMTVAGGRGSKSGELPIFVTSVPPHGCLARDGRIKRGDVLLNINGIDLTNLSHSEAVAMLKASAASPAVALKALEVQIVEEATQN"}, "[12]": {"target": "T5, MPDZ_5, O75970", "T5 sequence (O75970 695-796, limits assumed, looked up)": "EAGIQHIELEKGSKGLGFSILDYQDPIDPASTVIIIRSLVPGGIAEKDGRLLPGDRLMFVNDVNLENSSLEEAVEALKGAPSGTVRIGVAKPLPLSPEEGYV"}, "[13]": {"target": "T6, MPP7, Q5T2T1", "T6 sequence (Q5T2T1 134-230, limits assumed, looked up)": "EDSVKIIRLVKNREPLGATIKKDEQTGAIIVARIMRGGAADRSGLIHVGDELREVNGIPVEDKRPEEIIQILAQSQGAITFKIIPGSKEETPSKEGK"}, "[14]": {"target": "NHERF4_1, Q86UT5-2", "sequence (Q86UT5 other isoform, or with tags, fused parts or gaps)": "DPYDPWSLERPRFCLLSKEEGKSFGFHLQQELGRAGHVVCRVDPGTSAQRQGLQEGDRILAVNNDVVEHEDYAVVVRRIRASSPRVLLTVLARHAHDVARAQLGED"}, "[15]": {"target": "T7, PDZRN3_1, Q9UPQ7", "T7 sequence (Q9UPQ7 244-349, limits assumed, looked up)": "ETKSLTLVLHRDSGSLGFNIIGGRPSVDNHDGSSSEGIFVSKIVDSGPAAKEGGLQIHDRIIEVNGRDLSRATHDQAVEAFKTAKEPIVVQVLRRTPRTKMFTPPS"}, "[16]": {"target": "PICK1, Q9NRD5", "sequence (Q9NRD5 17-115)": "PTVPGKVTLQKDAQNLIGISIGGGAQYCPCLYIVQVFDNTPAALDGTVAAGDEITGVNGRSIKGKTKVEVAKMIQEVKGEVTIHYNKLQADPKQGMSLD"}, "[17]": {"target": "T8, PTPN13_1, Q12923", "T8 sequence (Q12923 1088-1188, limits assumed, looked up)": "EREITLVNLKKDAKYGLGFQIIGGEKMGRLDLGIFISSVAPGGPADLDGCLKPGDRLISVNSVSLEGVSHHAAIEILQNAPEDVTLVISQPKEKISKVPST"}, "[18]": {"target": "T9, RHPN1, Q8TCX5", "T9 sequence (Q8TCX5 508-602, limits assumed, looked up)": "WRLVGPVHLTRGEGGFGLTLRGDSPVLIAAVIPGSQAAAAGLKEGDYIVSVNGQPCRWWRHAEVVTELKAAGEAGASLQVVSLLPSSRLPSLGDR"}, "[19]": {"target": "SCRIB_1, Q14160", "sequence (Q14160 718-814)": "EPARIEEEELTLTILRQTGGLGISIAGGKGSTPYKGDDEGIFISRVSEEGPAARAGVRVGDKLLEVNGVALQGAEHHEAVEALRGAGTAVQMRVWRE"}, "[20]": {"target": "SCRIB_2, Q14160", "sequence (Q14160 857-960)": "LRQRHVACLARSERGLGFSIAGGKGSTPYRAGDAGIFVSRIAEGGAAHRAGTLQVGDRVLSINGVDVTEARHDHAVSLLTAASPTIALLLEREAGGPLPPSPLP"}, "[21]": {"target": "SCRIB_3, Q14160", "sequence (Q14160 999-1103)": "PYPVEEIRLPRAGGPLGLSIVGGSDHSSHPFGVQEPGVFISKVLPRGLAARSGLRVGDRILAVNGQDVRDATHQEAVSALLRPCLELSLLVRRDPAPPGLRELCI"}, "[22]": {"target": "T10, SHANK1, Q9Y566", "T10 sequence (Q9Y566 658-767, limits assumed, looked up)": "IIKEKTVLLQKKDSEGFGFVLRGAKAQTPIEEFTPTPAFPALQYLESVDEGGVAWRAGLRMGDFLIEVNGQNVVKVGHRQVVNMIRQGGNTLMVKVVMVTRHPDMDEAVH"}, "[23]": {"target": "T11, SNTG1, Q9NSN8", "T11 sequence (Q9NSN8 52-150, limits assumed, looked up)": "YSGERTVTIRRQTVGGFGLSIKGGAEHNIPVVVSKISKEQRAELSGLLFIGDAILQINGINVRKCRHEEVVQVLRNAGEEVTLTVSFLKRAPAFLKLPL"}, "[24]": {"target": "SNX27, Q96L92"}, "[25]": {"target": "TJP2_1, Q9UDY2", "sequence (Q9UDY2 24-128)": "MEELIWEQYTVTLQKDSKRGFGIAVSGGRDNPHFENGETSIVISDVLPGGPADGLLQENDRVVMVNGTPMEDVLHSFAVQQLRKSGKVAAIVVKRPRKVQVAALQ"}, "[26]": {"conditions": "plain residues with an end cap or a label only (N-terminal biotin on a linker: ttds)"}, "[27]": {"conditions": "plain residues with an end cap or a label only (N-terminal biotin on a linker: ahx)"}, "[28]": {"conditions": "plain residues with an end cap or a label only (N-terminal biotin on a linker: ado-ado)"}}, "data": [{"binder": "ERKLSSESQV", "note": "[LRP4, O75096]", "values": [{"measurement": "pKd", "setting": "[1]; [26]", "result": "below the threshold"}, {"measurement": "pKd", "setting": "[2]; [26]", "result": "below the threshold"}, {"measurement": "pKd", "setting": "[3]; [26]", "result": "below the threshold"}, {"measurement": "pKd", "setting": "[4]; [26]", "result": 3.81}, {"measurement": "pKd", "setting": "[5]; [26]", "result": 4.6}, {"measurement": "pKd", "setting": "[6]; [26]", "result": 4.17}, {"measurement": "pKd", "setting": "[7]; [26]", "result": "below the threshold"}, {"measurement": "pKd", "setting": "[8]; [26]", "result": 4.39}, {"measurement": "pKd", "setting": "[9]; [26]", "result": "below the threshold"}, {"measurement": "pKd", "setting": "[10]; [26]", "result": "below the threshold"}, {"measurement": "pKd", "setting": "[11]; [26]", "result": "below the threshold"}, {"measurement": "pKd", "setting": "[12]; [26]", "result": "below the threshold"}, {"measurement": "pKd", "setting": "[13]; [26]", "result": "below the threshold"}, {"measurement": "pKd", "setting": "[14]; [26]", "result": "below the threshold"}, {"measurement": "pKd", "setting": "[15]; [26]", "result": "below the threshold"}, {"measurement": "pKd", "setting": "[16]; [26]", "result": "below the threshold"}, {"measurement": "pKd", "setting": "[17]; [26]", "result": "below the threshold"}, {"measurement": "pKd", "setting": "[18]; [26]", "result": 3.96}, {"measurement": "pKd", "setting": "[19]; [26]", "result": 3.63}, {"measurement": "pKd", "setting": "[20]; [26]", "result": 3.66}, {"measurement": "pKd", "setting": "[21]; [26]", "result": 3.93}, {"measurement": "pKd", "setting": "[22]; [26]", "result": "below the threshold"}, {"measurement": "pKd", "setting": "[23]; [26]", "result": 4.37}, {"measurement": "pKd", "setting": "[24]; [26]", "result": 4.75}, {"measurement": "pKd", "setting": "[25]; [26]", "result": "below the threshold"}]}, {"binder": "HTHSYIETHV", "note": "[CNKSR2, Q8WXI2]", "values": [{"measurement": "pKd", "setting": "[1]; [27]", "result": "below the threshold"}, {"measurement": "pKd", "setting": "[2]; [27]", "result": "below the threshold"}, {"measurement": "pKd", "setting": "[3]; [27]", "result": 3.85}, {"measurement": "pKd", "setting": "[4]; [27]", "result": 4.08}, {"measurement": "pKd", "setting": "[5]; [27]", "result": 5.04}, {"measurement": "pKd", "setting": "[6]; [27]", "result": 4.4}, {"measurement": "pKd", "setting": "[7]; [27]", "result": 3.87}, {"measurement": "pKd", "setting": "[8]; [27]", "result": "below the threshold"}, {"measurement": "pKd", "setting": "[9]; [27]", "result": "below the threshold"}, {"measurement": "pKd", "setting": "[10]; [27]", "result": 3.85}, {"measurement": "pKd", "setting": "[11]; [27]", "result": "below the threshold"}, {"measurement": "pKd", "setting": "[12]; [27]", "result": "below the threshold"}, {"measurement": "pKd", "setting": "[13]; [27]", "result": "below the threshold"}, {"measurement": "pKd", "setting": "[14]; [27]", "result": "below the threshold"}, {"measurement": "pKd", "setting": "[15]; [27]", "result": 3.8}, {"measurement": "pKd", "setting": "[16]; [27]", "result": "below the threshold"}, {"measurement": "pKd", "setting": "[17]; [27]", "result": "below the threshold"}, {"measurement": "pKd", "setting": "[18]; [27]", "result": 5.21}, {"measurement": "pKd", "setting": "[19]; [27]", "result": 5.64}, {"measurement": "pKd", "setting": "[20]; [27]", "result": 5.31}, {"measurement": "pKd", "setting": "[21]; [27]", "result": 5.11}, {"measurement": "pKd", "setting": "[22]; [27]", "result": 4.24}, {"measurement": "pKd", "setting": "[23]; [27]", "result": 4.9}, {"measurement": "pKd", "setting": "[24]; [27]", "result": 5.7}, {"measurement": "pKd", "setting": "[25]; [27]", "result": 4.46}]}, {"binder": "KSRVAFFEEL", "note": "[NF2, P35240]", "values": [{"measurement": "pKd", "setting": "[3]; [28]", "result": 3.82}, {"measurement": "pKd", "setting": "[4]; [28]", "result": 3.58}, {"measurement": "pKd", "setting": "[6]; [28]", "result": 3.63}, {"measurement": "pKd", "setting": "[8]; [28]", "result": 3.87}, {"measurement": "pKd", "setting": "[10]; [28]", "result": 3.73}, {"measurement": "pKd", "setting": "[15]; [28]", "result": 3.54}, {"measurement": "pKd", "setting": "[19]; [28]", "result": 3.64}, {"measurement": "pKd", "setting": "[21]; [28]", "result": 3.7}, {"measurement": "pKd", "setting": "[24]; [28]", "result": 3.7}, {"measurement": "pKd", "setting": "[25]; [28]", "result": 3.63}]}, {"binder": "KRPEMTSSSV", "note": "[MUC3B, MUC3A, Q02505;Q9H195]", "values": [{"measurement": "pKd", "setting": "[2]; [28]", "result": "below the threshold"}, {"measurement": "pKd", "setting": "[4]; [28]", "result": "below the threshold"}, {"measurement": "pKd", "setting": "[15]; [28]", "result": "below the threshold"}, {"measurement": "pKd", "setting": "[16]; [28]", "result": 2.09}, {"measurement": "pKd", "setting": "[17]; [28]", "result": "below the threshold"}, {"measurement": "pKd", "setting": "[19]; [28]", "result": "below the threshold"}, {"measurement": "pKd", "setting": "[24]; [28]", "result": 5.03}]}]}
